In patent publication US20140287471A1, “VARIANT CBH I POLYPEPTIDES WITH REDUCED PRODUCT INHIBITION” (BP CORPORATION NORTN AMERICA INC., priority 2011, published 2014):

Legend:
[1] = 4-MUL cellobiose tolerance/inhibition assay, dose-response IC50 (Example 2); assay type: biochemical; settings: primary screening, n=1; for Tolerance at 1 mM CB (MUL Data): 1 mM cellobiose; for IC50: 10 μL enzyme, cellobiose range 0.0001-100 mM, read-out: IC50 (MUL Data)
Experimental: (§1) CBH I activity on was measured using the 4-MUL assay using gluconolactone to inhibit any BG activity. The fluorogenic 4-MUL substrate (SIGMA) was prepared at 100 mM concentration in DMSO. Assays were run in black 96-well-flat-bottomed plates (Costar) and 4-MU fluorescence was read on a BioTek H4 plate reader (ex/em 365/450 nm). Assay plates were filled with buffer (final concentrations of 100 mM MES, pH 6, 25 mM gluconolactone, with or without cellobiose; cellobiose concentrations are listed with appropriate data sets), to which enzyme mixture was added (10-30 μl, 5 μg/mL final) and then assays were initiated by addition of 4-MUL (0.5 mM final concentration in 100 μl total volume). Enzyme mixtures were either CBH I variants from harvested supernatants or standards. Standards included: a negative control, consisting of harvested supernatant from the CBH I knock-out strain; a positive control, consisting of wild-type CBH I from harvested supernatants; and, a commercial CBH I standard (E-CBHI from Megazymes). Activity standards were run by serial dilution of commercial CBH I from 40 to 0.02 μg/mL and 4-MU (SIGMA, prepared at 20 mM in DMSO) (in dilution increments of 2-fold; all dilutions were made using harvested supernatant from the knock-out control). Kinetic rates were monitored over the first 15 mins following 4-MUL addition; initial rates were calculated based on data in the linear range. After 1 hr, a final endpoint read was taken, both before and after reaction quenching (100 μL of 200 mM Sodium Carbonate, pH 10.0). Activity was calculated for kinetic and endpoint reads; background resulting from the CBH I knock-out supernatant remained negligible. 4MU standard curves and HPLC quantification values were used to calculate specific activity.
Tolerance/inhibition values represent activity ratios and/or percent activity remaining/percent activity decreased in the presence versus the absence of cellobiose. Tolerant variants show less inhibition in the presence of cellobiose as compared to wild type, where an activity ratio of 1 (with vs. without a given concentration of cellobiose) is equivalent to 0% inhibition by cellobiose, or 100% tolerance. The effect of cellobiose on CBH I variant performance was monitored by dose-response in the 4MUL assay. Dose-response curves were generated by assaying variant activity in the presence of 6-8 different cellobiose concentrations ranging up to 100 mM cellobiose. CBH I samples were diluted to 5 μg/mL final concentration or were used directly in the case of protein quantification levels below 5 μg/mL. Half maximal inhibitory concentration (IC50) values were determined by plotting 4MUL activity versus cellobiose concentration and fitting with a four parameter dose-response fitting algorithm, with zero activity (or 100% inhibition) constrained to background activity (as established by CBH I knockout values) and with automatic outlier elimination (on GraphPad Prism 5).
Harvested supernatants from active variant isolates were evaluated for cellobiose tolerance at 1 mM cellobiose in the 4-MUL activity assay. Table 8 lists the tolerance of variants at 1 mM. […] Additional cellobiose concentrations at 0.25, 5, 10, 50, and 100 mM were tested leading to full dose-response curves for which half maximal inhibitory concentration (IC50) values were generated (Table 8). The IC50 values support that the variant library has decreased product inhibition, or increased tolerance to cellobiose, when compared to the wild-type enzyme (WT IC50=0.03 mM; see first entry, Table 8).
In one example, the cellobiose tolerance of the library was explored in more detail by generating dose-response curves and determining half maximal inhibitory concentration (IC50) values, the point at which the enzyme is 50% inhibited.

[2] = 4-MUL assay, specific activity (Example 2); assay type: biochemical; settings: primary screening; 10 μL enzyme; n=1
Experimental: as §1
The specific activity (SA) of the variant library was evaluated in a secondary 4-MUL assay. […] On average, a mutation at position 268 increases the specific activity by 2.5 fold over that of wild type. A mutation at 268 in combination with 411 is around 1.5-1.6 fold higher than wild-type, on average.

Row | Molecule | Tolerance at 1 mM CB (MUL Data) [1] | IC50 [1] | SA (μmol 4 MU/min/mg) (MUL Data) [2]
1 | 268— Asn (protein, UniProt P62694 18-513, looked up, variant R268N) Exoglucanase 1: QSACTLQSETHPPLTWQKCSSGGTCTQQTGSVVIDANWRWTHATNSSTNCYDGNTWSSTLCPDNETCAKNCCLDGAAYASTYGVTTSGNSLSIGFVTQSAQKNVGARLYLMASDTTYQEFTLLGNEFSFDVDVSQLPCGLNGALYFVSMDADGGVSKYPTNTAGAKYGTGYCDSQCPRDLKFINGQANVEGWEPSSNNANTGIGGHGSCCSEMDIWEANSISEALTPHPCTTVGQEICEGDGCGGTYSDNNYGGTCDPDGCDWNPYRLGNTSFYGPGSSFTLDTTKKLTVVTQFETSGAINRYYVQNGVTFQQPNAELGSYSGNELNDDYCTAEEAEFGGSSFSDKGGLTQFKKATSGGMVLVMSLWDDYYANMLWLDSTYPTNETSSTPGAVRGSCSTSSGVPAQVESQSPNAKVTFSNIKFGPIGSTGNPSGGNPPGGNRGTTTTRRPATTTGSSPGPTQSHYGQCGGIGYSGPTVCASGTTCQVLNPYYSQCL | 41% | 670 µM | 13.97 μmol 4 MU/min/mg
2 | 268_+411A Val (protein, UniProt P62694 18-513, looked up, variant R268V R411A) Exoglucanase 1: QSACTLQSETHPPLTWQKCSSGGTCTQQTGSVVIDANWRWTHATNSSTNCYDGNTWSSTLCPDNETCAKNCCLDGAAYASTYGVTTSGNSLSIGFVTQSAQKNVGARLYLMASDTTYQEFTLLGNEFSFDVDVSQLPCGLNGALYFVSMDADGGVSKYPTNTAGAKYGTGYCDSQCPRDLKFINGQANVEGWEPSSNNANTGIGGHGSCCSEMDIWEANSISEALTPHPCTTVGQEICEGDGCGGTYSDNVYGGTCDPDGCDWNPYRLGNTSFYGPGSSFTLDTTKKLTVVTQFETSGAINRYYVQNGVTFQQPNAELGSYSGNELNDDYCTAEEAEFGGSSFSDKGGLTQFKKATSGGMVLVMSLWDDYYANMLWLDSTYPTNETSSTPGAVAGSCSTSSGVPAQVESQSPNAKVTFSNIKFGPIGSTGNPSGGNPPGGNRGTTTTRRPATTTGSSPGPTQSHYGQCGGIGYSGPTVCASGTTCQVLNPYYSQCL | 93% | 7480 µM | 1.33 μmol 4 MU/min/mg
3 | 268_+411A Ala (protein, UniProt P62694 18-513, looked up, variant R268A R411A) Exoglucanase 1: QSACTLQSETHPPLTWQKCSSGGTCTQQTGSVVIDANWRWTHATNSSTNCYDGNTWSSTLCPDNETCAKNCCLDGAAYASTYGVTTSGNSLSIGFVTQSAQKNVGARLYLMASDTTYQEFTLLGNEFSFDVDVSQLPCGLNGALYFVSMDADGGVSKYPTNTAGAKYGTGYCDSQCPRDLKFINGQANVEGWEPSSNNANTGIGGHGSCCSEMDIWEANSISEALTPHPCTTVGQEICEGDGCGGTYSDNAYGGTCDPDGCDWNPYRLGNTSFYGPGSSFTLDTTKKLTVVTQFETSGAINRYYVQNGVTFQQPNAELGSYSGNELNDDYCTAEEAEFGGSSFSDKGGLTQFKKATSGGMVLVMSLWDDYYANMLWLDSTYPTNETSSTPGAVAGSCSTSSGVPAQVESQSPNAKVTFSNIKFGPIGSTGNPSGGNPPGGNRGTTTTRRPATTTGSSPGPTQSHYGQCGGIGYSGPTVCASGTTCQVLNPYYSQCL | 65% | 1330 µM | 0.52 μmol 4 MU/min/mg
4 | 268_+411A Ile (protein, UniProt P62694 18-513, looked up, variant R268I R411A) Exoglucanase 1: QSACTLQSETHPPLTWQKCSSGGTCTQQTGSVVIDANWRWTHATNSSTNCYDGNTWSSTLCPDNETCAKNCCLDGAAYASTYGVTTSGNSLSIGFVTQSAQKNVGARLYLMASDTTYQEFTLLGNEFSFDVDVSQLPCGLNGALYFVSMDADGGVSKYPTNTAGAKYGTGYCDSQCPRDLKFINGQANVEGWEPSSNNANTGIGGHGSCCSEMDIWEANSISEALTPHPCTTVGQEICEGDGCGGTYSDNIYGGTCDPDGCDWNPYRLGNTSFYGPGSSFTLDTTKKLTVVTQFETSGAINRYYVQNGVTFQQPNAELGSYSGNELNDDYCTAEEAEFGGSSFSDKGGLTQFKKATSGGMVLVMSLWDDYYANMLWLDSTYPTNETSSTPGAVAGSCSTSSGVPAQVESQSPNAKVTFSNIKFGPIGSTGNPSGGNPPGGNRGTTTTRRPATTTGSSPGPTQSHYGQCGGIGYSGPTVCASGTTCQVLNPYYSQCL | 90% | 10400 µM | 0.89 μmol 4 MU/min/mg
5 | 268— Cys (protein, UniProt P62694 18-513, looked up, variant R268C) Exoglucanase 1: QSACTLQSETHPPLTWQKCSSGGTCTQQTGSVVIDANWRWTHATNSSTNCYDGNTWSSTLCPDNETCAKNCCLDGAAYASTYGVTTSGNSLSIGFVTQSAQKNVGARLYLMASDTTYQEFTLLGNEFSFDVDVSQLPCGLNGALYFVSMDADGGVSKYPTNTAGAKYGTGYCDSQCPRDLKFINGQANVEGWEPSSNNANTGIGGHGSCCSEMDIWEANSISEALTPHPCTTVGQEICEGDGCGGTYSDNCYGGTCDPDGCDWNPYRLGNTSFYGPGSSFTLDTTKKLTVVTQFETSGAINRYYVQNGVTFQQPNAELGSYSGNELNDDYCTAEEAEFGGSSFSDKGGLTQFKKATSGGMVLVMSLWDDYYANMLWLDSTYPTNETSSTPGAVRGSCSTSSGVPAQVESQSPNAKVTFSNIKFGPIGSTGNPSGGNPPGGNRGTTTTRRPATTTGSSPGPTQSHYGQCGGIGYSGPTVCASGTTCQVLNPYYSQCL | 35% | 520 µM | 0.86 μmol 4 MU/min/mg
6 | 268— Thr (protein, UniProt P62694 18-513, looked up, variant R268T) Exoglucanase 1: QSACTLQSETHPPLTWQKCSSGGTCTQQTGSVVIDANWRWTHATNSSTNCYDGNTWSSTLCPDNETCAKNCCLDGAAYASTYGVTTSGNSLSIGFVTQSAQKNVGARLYLMASDTTYQEFTLLGNEFSFDVDVSQLPCGLNGALYFVSMDADGGVSKYPTNTAGAKYGTGYCDSQCPRDLKFINGQANVEGWEPSSNNANTGIGGHGSCCSEMDIWEANSISEALTPHPCTTVGQEICEGDGCGGTYSDNTYGGTCDPDGCDWNPYRLGNTSFYGPGSSFTLDTTKKLTVVTQFETSGAINRYYVQNGVTFQQPNAELGSYSGNELNDDYCTAEEAEFGGSSFSDKGGLTQFKKATSGGMVLVMSLWDDYYANMLWLDSTYPTNETSSTPGAVRGSCSTSSGVPAQVESQSPNAKVTFSNIKFGPIGSTGNPSGGNPPGGNRGTTTTRRPATTTGSSPGPTQSHYGQCGGIGYSGPTVCASGTTCQVLNPYYSQCL | 42% | 600 µM | 0.97 μmol 4 MU/min/mg
7 | 268— Ser (protein, UniProt P62694 18-513, looked up, variant R268S) Exoglucanase 1: QSACTLQSETHPPLTWQKCSSGGTCTQQTGSVVIDANWRWTHATNSSTNCYDGNTWSSTLCPDNETCAKNCCLDGAAYASTYGVTTSGNSLSIGFVTQSAQKNVGARLYLMASDTTYQEFTLLGNEFSFDVDVSQLPCGLNGALYFVSMDADGGVSKYPTNTAGAKYGTGYCDSQCPRDLKFINGQANVEGWEPSSNNANTGIGGHGSCCSEMDIWEANSISEALTPHPCTTVGQEICEGDGCGGTYSDNSYGGTCDPDGCDWNPYRLGNTSFYGPGSSFTLDTTKKLTVVTQFETSGAINRYYVQNGVTFQQPNAELGSYSGNELNDDYCTAEEAEFGGSSFSDKGGLTQFKKATSGGMVLVMSLWDDYYANMLWLDSTYPTNETSSTPGAVRGSCSTSSGVPAQVESQSPNAKVTFSNIKFGPIGSTGNPSGGNPPGGNRGTTTTRRPATTTGSSPGPTQSHYGQCGGIGYSGPTVCASGTTCQVLNPYYSQCL | 45% | 740 µM | 1.00 μmol 4 MU/min/mg
